B1: HDV Ribozyme (parent)
chain: GGCCGGCAUGGUCCCAGCCUCCUCGCUGGCGCCGGCUGGGCAACAUUCCGAGGGGACCGUCCCCUCGGUAAUGGCGAAUGGGACCCA

Variants of: B1
Assay: self-cleavage, relative activity (ratio to wild type); higher = more cleavage; co-transcriptional

Variant | self-cleavage
GGCCGGCAUGGUCCCAGCCUCCUCGCUGGCGCCGGCUGGGCAACAUUCAGAGGGGGCCGUCCCCUCGGUAAUGGCGAAUGGGACCCA [C49A A56G] | 1.11
GGCCGGCAUGGUCCCAGCCUCCUCGCUGGCGCCGGCUGGGCAACAUUCAGAGGGGACCGUCCCCUCGGUGAUGGCGAAUGGGACCCA [C49A A70G] | 0.689
GGCCGGCAUGGUCCCAGCCUCCUCGCUGGCGCCGGCUGGGCAACAUUCAGAGGGGACCGUCCCCUCGGUACUGGCGAAUGGGACCCA [C49A A71C] | 0.643
GGCCGGCAUGGUCCCAGCCUCCUCGCUGGCGCCGGCUGGGCAACAUUCAGAGGGGACCGUCCCCUCGGUAAUGGCGAGUGGGACCCA [C49A A78G] | 0.665
GGCCGGCAUGGUCCCAGCCUCCUCGCUGGCGCCGGCUGGGCAACAUUCAGAGGGGACCGUCCCCUCGGUAAUGGCGAAUGGGUCCCA [C49A A83U] | 0.719
GGCCGGCAUGGUCCCAGCCUCCUCGCUGGCGCCGGCUGGGCAACAUUCAGAGGGGACCGUCCCCUCGGUAAUGGCGAAUGGGACCCC [C49A A87C] | 0.95
GGCCGGCAUGGUCCCAGCCUCCUCGCUGGCGCCGGCUGGGCAACAUUCAGAGGGGACCGUCCCCUCGGUAAUGGCGAAUGGGACCCG [C49A A87G] | 0.839
GGCCGGCAUGGUCCCAGCCUCCUCGCUGGCGCCGGCUGGGCAACAUUCAGAGGGGAGCGUCCCCUCGGUAAUGGCGAAUGGGACCCA [C49A C57G] | 0.898
GGCCGGCAUGGUCCCAGCCUCCUCGCUGGCGCCGGCUGGGCAACAUUCAGAGGGGACCGUACCCUCGGUAAUGGCGAAUGGGACCCA [C49A C61A] | 0.759
GGCCGGCAUGGUCCCAGCCUCCUCGCUGGCGCCGGCUGGGCAACAUUCAGAGGGGACCGUUCCCUCGGUAAUGGCGAAUGGGACCCA [C49A C61U] | 0.789
GGCCGGCAUGGUCCCAGCCUCCUCGCUGGCGCCGGCUGGGCAACAUUCAGAGGGGACCGUCCACUCGGUAAUGGCGAAUGGGACCCA [C49A C63A] | 0.597
GGCCGGCAUGGUCCCAGCCUCCUCGCUGGCGCCGGCUGGGCAACAUUCAGAGGGGACCGUCCCGUCGGUAAUGGCGAAUGGGACCCA [C49A C64G] | 0.356
GGCCGGCAUGGUCCCAGCCUCCUCGCUGGCGCCGGCUGGGCAACAUUCAGAGGGGACCGUCCCCUUGGUAAUGGCGAAUGGGACCCA [C49A C66U] | 0.979
GGCCGGCAUGGUCCCAGCCUCCUCGCUGGCGCCGGCUGGGCAACAUUCAGAGGGGACCGUCCCCUCGGUAAUGGAGAAUGGGACCCA [C49A C75A] | 0.156
GGCCGGCAUGGUCCCAGCCUCCUCGCUGGCGCCGGCUGGGCAACAUUCAGAGGGGACCGUCCCCUCGGUAAUGGCGAAUGGGAACCA [C49A C84A] | 1.05
GGCCGGCAUGGUCCCAGCCUCCUCGCUGGCGCCGGCUGGGCAACAUUCAGAGGGGACCGUCCCCUCGGUAAUGGCGAAUGGGACGCA [C49A C85G] | 0.762

Variant | self-cleavage
GGCCGGCAUGGUCCCAGCCUCCUCGCUGGCGCCGGCUGGGCAACAUUCAGAGGGGACCGUCCCCUCGGUAAUGGCGAAUGGGACCGA [C49A C86G] | 0.906
GGCCGGCAUGGUCCCAGCCUCCUCGCUGGCGCCGGCUGGGCAACAUUCAGAGGGAACCGUCCCCUCGGUAAUGGCGAAUGGGACCCA [C49A G55A] | 0.816
GGCCGGCAUGGUCCCAGCCUCCUCGCUGGCGCCGGCUGGGCAACAUUCAGAGGGUACCGUCCCCUCGGUAAUGGCGAAUGGGACCCA [C49A G55U] | 1.18
GGCCGGCAUGGUCCCAGCCUCCUCGCUGGCGCCGGCUGGGCAACAUUCAGAGGGGACCGUCCCCUCCGUAAUGGCGAAUGGGACCCA [C49A G67C] | 1.04
GGCCGGCAUGGUCCCAGCCUCCUCGCUGGCGCCGGCUGGGCAACAUUCAGAGGGGACCGUCCCCUCGCUAAUGGCGAAUGGGACCCA [C49A G68C] | 0.849
GGCCGGCAUGGUCCCAGCCUCCUCGCUGGCGCCGGCUGGGCAACAUUCAGAGGGGACCGUCCCCUCGUUAAUGGCGAAUGGGACCCA [C49A G68U] | 0.817
GGCCGGCAUGGUCCCAGCCUCCUCGCUGGCGCCGGCUGGGCAACAUUCAGAGGGGACCGUCCCCUCGGUAAUAGCGAAUGGGACCCA [C49A G73A] | 0.314
GGCCGGCAUGGUCCCAGCCUCCUCGCUGGCGCCGGCUGGGCAACAUUCAGAGGGGACCGUCCCCUCGGUAAUGACGAAUGGGACCCA [C49A G74A] | 0.288
GGCCGGCAUGGUCCCAGCCUCCUCGCUGGCGCCGGCUGGGCAACAUUCAGAGGGGACCGUCCCCUCGGUAAUGGCGAAUAGGACCCA [C49A G80A] | 0.479
GGCCGGCAUGGUCCCAGCCUCCUCGCUGGCGCCGGCUGGGCAACAUUCAGAGGGGACCGUCCCCUCGGUAAUGGCGAAUGUGACCCA [C49A G81U] | 0.26
GGCCGGCAUGGUCCCAGCCUCCUCGCUGGCGCCGGCUGGGCAACAUUCAGAGGGGACCGUCCCCUCGGUAAUGGCGAAUGGAACCCA [C49A G82A] | 0.104
GGCCGGCAUGGUCCCAGCCUCCUCGCUGGCGCCGGCUGGGCAACAUUCAGAGGGGACCGUCCCCUCGGGAAUGGCGAAUGGGACCCA [C49A U69G] | 1.33
GGCCGGCAUGGUCCCAGCCUCCUCGCUGGCGCCGGCUGGGCAACAUUCAGAGGGGACCGUCCCCUCGGUAAUGGCGAAAGGGACCCA [C49A U79A] | 1.05
GGCCGGCAUGGUCCCAGCCUCCUCGCUGGCGCCGGCUGGGCAACAUUCGGAGGGGACCGUCCCCUCGGUAAUGGCGAAUGGGACCCA [C49G] | 0.905
GGCCGGCAUGGUCCCAGCCUCCUCGCUGGCGCCGGCUGGGCAACAUUCGGCGGGGACCGUCCCCUCGGUAAUGGCGAAUGGGACCCA [C49G A51C] | 0.623
GGCCGGCAUGGUCCCAGCCUCCUCGCUGGCGCCGGCUGGGCAACAUUCGGGGGGGACCGUCCCCUCGGUAAUGGCGAAUGGGACCCA [C49G A51G] | 0.688

— the RNAGym collection of RNA variant scans (doi:10.7554/elife.80360)
